The values that follow come from article PMC9458464, “The BAF A12T mutation disrupts lamin A/C interaction, impairing robust repair of nuclear envelope ruptures in Nestor–Guillermo progeria syndrome cells” (Nucleic Acids Research, 2022).

Data set [1] deals with T1, lamin A/C Ig-fold domain (aa 411-566) (human, UniProt P02545 411-566).
T1 construct: human lamin A/C fragment from aa 411 to aa 566 (Ig-fold domain); 15N-labelled (grown in M9) for the NMR experiments; also called Igfold domain of lamin A/C; source: E. coli BL21* (DE3), purified (glutathione beads, thrombin cleavage, gel filtration)
T1 sequence (looked up): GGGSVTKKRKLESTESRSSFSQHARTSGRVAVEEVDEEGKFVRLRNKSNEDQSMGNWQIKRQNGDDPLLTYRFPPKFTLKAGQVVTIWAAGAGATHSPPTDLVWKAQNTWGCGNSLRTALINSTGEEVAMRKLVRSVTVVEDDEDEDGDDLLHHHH
Kind of data set: NMR titration; 2D 1H-15N HSQC of 15N-labelled lamin A/C Ig-fold (80 uM; 160 uM in one sample) with unlabelled BAF at ratios 1:1 and 1:2; 50 mM HEPES pH 7.4, 150 mM NaCl, 293 K; peak intensity ratios I/Io. As to conditions: both partners purified.

In data set [2] the target is T1, lamin A/C Ig-fold domain (aa 411-566). Briefly: ITC; VP-ITC; 100 or 200 uM lamin A/C Ig-fold in the syringe, 20 uM BAF WT or 40 uM BAF A12T in the cell; 50 mM Hepes pH 7.4, 150 mM NaCl, 288 K; stoichiometry set to 0.5 in the fit; each experiment done twice. The following applies: both partners purified. Background: In ITC the heat of successive injections is recorded.

Data set [3] deals with the molecule itself. Kind of data set: crystal structure; BAF A12T-lamin A/C Ig-fold complex recovered after ITC (50 mM Hepes pH 7.4, 150 mM NaCl), about 20 mg/ml; sitting drop, 0.1 M bicine pH 9, 3 M ammonium sulfate; 1.6 A.
The target in data set [4] is T2, BAF WT (barrier-to-autointegration factor, purified cysteine-free construct) (human, UniProt O75531 1-89, M1G | C67A | C77A | C80A | C85A).
T2 sequence: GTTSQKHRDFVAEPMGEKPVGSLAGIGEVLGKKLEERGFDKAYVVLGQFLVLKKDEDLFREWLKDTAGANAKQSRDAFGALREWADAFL
Kind of data set: ITC; experiment 1.

Data set [5] concerns the target T3, BAF A12T (barrier-to-autointegration factor A12T, purified cysteine-free construct) (human, UniProt O75531 1-89, M1G | A12T | C67A | C77A | C80A | C85A).
T3 sequence: T2 sequence with A12T
Briefly: ITC; experiment 1.

The target of data set [6] is T2, BAF WT (barrier-to-autointegration …). Briefly: ITC; experiment 2.
In data set [7] the target is T3, BAF A12T (barrier-to-autointegration …). Briefly: ITC; experiment 2.
In data set [8] the target is T2, BAF WT (barrier-to-autointegration …). Briefly: ITC.
Data set [9] addresses T3, BAF A12T (barrier-to-autointegration …). Briefly: ITC.

Residue numbers refer to the chain shown, from its start. Names may count otherwise.

B1: BAF WT (barrier-to-autointegration factor, purified cysteine-free construct) (natural protein, human, UniProt O75531 1-89, looked up)
chain: T2 sequence
notes: human barrier-to-autointegration factor (BAF, 89 amino acids); after tag cleavage the first residue is G instead of M; gene synthesized by Genscript in pETM13; also called BAF WT dimer; not shown: His8, N-terminal, cleaved
As a reminder, the Kd is the concentration at which binding is half-saturated. Regarding B1, in [1], the “percent of the initial NMR signals of the Ig-fold left at 1:1 ratio” value was found to be 27% and the “percent of the initial NMR signals of the Ig-fold left at 1:2 ratio” value was determined as 4%. In [2], this molecule showed an equilibrium dissociation constant (Kd) of 2.7 ± 1.2 µM.

B2: BAF A12T (barrier-to-autointegration factor A12T, purified cysteine-free construct) (natural protein, human, UniProt O75531 1-89, looked up)
chain: T2 sequence with A12T
notes: human barrier-to-autointegration factor (BAF, 89 amino acids); made by mutagenesis of the BAF WT expression vector (all cysteines to alanine, M1G after tag cleavage) with the NGPS mutation A12T; PDB 6GHD holds the parent (BAF WT); PDB 7Z21 holds this mutant; also called BAF A12T dimer; not shown: His8, N-terminal, cleaved
Broadly, the stoichiometry N is the number of molecules, sites or subunits per partner or assembly. Regarding B2, in data set [3], the “stoichiometry N” value stood at 2. In addition, in [1], the “decrease of NMR signal intensity of the Ig-fold at 1:1 ratio” value stood at 43% and the “decrease of NMR signal intensity of the Ig-fold at 1:2 ratio” value is 66%. Binding in data set [2] was characterised by a dissociation constant (Kd) of 33 ± 4 µM.

B3: lamin A/C Ig-fold domain (aa 411-566) (domain or fragment)
chain: T1 sequence (looked up)
Consider B3, for which the equilibrium dissociation constant (Kd) in data set [4] amounted to 2.3 µM; in [5] it was 24 µM; in [6], 3.1 µM; in data set [7] it was 42 µM; in data set [8], 2.3 µM; in [9], 24 µM.
